Measured values from US20230391826A1, “COMPOSITIONS AND METHODS FOR TREATING DISEASES” (Sanford Burnham Prebys Medical Discovery Institute, priority 2020, published 2023).
*1 amine or outer side, *2 acyl side, *3 side chain or, on linkers, in order; H or OH if unused. Where no end group is shown, it is not given here. [ ]: non-standard residue; d: D form. Ccam = carbamidomethyl-cysteine, NC(=O)CSC[C@H](N[*:1])C(=O)[*:2]; βAla = NCCC(=O)O

Key:
[1] = target: EphA2 extracellular domain fused to the Fc portion of an antibody (EphA2-Fc); test: ELISA, inhibition of ephrinA5-AP binding to immobilized EphA2-Fc
Sequence of EphA2 extracellular domain fused to the Fc portion of an antibody (EphA2-Fc) (P29317 whole entry, the tested form may be a part): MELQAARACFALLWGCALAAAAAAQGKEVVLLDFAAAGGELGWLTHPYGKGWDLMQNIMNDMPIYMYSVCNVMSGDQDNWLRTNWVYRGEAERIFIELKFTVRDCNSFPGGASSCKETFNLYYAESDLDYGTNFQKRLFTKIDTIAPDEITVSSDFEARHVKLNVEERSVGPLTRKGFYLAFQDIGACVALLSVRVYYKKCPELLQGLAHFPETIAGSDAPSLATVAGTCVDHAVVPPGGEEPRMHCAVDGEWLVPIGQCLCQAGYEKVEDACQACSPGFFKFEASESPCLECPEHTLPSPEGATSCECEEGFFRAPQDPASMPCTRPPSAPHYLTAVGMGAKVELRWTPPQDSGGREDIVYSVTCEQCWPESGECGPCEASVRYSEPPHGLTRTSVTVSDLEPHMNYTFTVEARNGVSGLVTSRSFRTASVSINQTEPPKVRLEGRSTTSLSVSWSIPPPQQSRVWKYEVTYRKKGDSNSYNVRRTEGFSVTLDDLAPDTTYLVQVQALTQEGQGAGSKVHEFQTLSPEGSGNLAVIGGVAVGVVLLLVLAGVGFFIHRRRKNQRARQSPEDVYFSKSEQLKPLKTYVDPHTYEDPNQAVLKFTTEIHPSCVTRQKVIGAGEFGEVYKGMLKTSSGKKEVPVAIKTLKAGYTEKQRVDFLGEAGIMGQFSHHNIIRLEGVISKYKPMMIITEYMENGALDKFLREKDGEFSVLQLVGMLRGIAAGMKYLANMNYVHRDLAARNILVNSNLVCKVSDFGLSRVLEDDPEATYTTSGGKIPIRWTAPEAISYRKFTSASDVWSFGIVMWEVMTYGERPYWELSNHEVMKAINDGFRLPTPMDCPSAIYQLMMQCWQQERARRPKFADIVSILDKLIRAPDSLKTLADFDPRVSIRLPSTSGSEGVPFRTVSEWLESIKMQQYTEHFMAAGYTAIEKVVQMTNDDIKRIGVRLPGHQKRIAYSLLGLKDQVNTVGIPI

[2] = target: EphA2 extracellular domain fused to the Fc portion of an antibody (EphA2-Fc); test: ELISA, inhibition of ephrinA5-AP binding to immobilized EphA2-Fc; representative experiment, triplicates

IC50 [1] [nM]	IC50 [2] [nM]	Binder
0.4	0.38	[βAla]WLAYPDSVPYRPKGGAWLAYPDSVPYRPK-NH2 (N-terminus assumed; SMILES CC(C)C[C@H](NC(=O)[C@H](Cc1c[nH]c2ccccc12)NC(=O)CCN)C(=O)N[C@@H](C)C(=O)N[C@@H](Cc1ccc(O)cc1)C(=O)N1CCC[C@H]1C(=O)N[C@@H](CC(=O)O)C(=O)N[C@@H](CO)C(=O)N[C@H](C(=O)N1CCC[C@H]1C(=O)N[C@@H](Cc1ccc(O)cc1)C(=O)N[C@@H](CCCNC(=N)N)C(=O)N1CCC[C@H]1C(=O)N[C@@H](CCCCN)C(=O)NCC(=O)NCC(=O)N[C@@H](C)C(=O)N[C@@H](Cc1c[nH]c2ccccc12)C(=O)N[C@@H](CC(C)C)C(=O)N[C@@H](C)C(=O)N[C@@H](Cc1ccc(O)cc1)C(=O)N1CCC[C@H]1C(=O)N[C@@H](CC(=O)O)C(=O)N[C@@H](CO)C(=O)N[C@H](C(=O)N1CCC[C@H]1C(=O)N[C@@H](Cc1ccc(O)cc1)C(=O)N[C@@H](CCCNC(=N)N)C(=O)N1CCC[C@H]1C(=O)N[C@@H](CCCCN)C(N)=O)C(C)C)C(C)C) [linear dimer (head-to-tail)]
0.77	0.77	Lys-linked dimer (C-ter) (also: bond at chain A 15 to a chain's C-terminus) peptide 1: [βAla]WLAYPDSVPYRPKK peptide 2: [βAla]WLAYPDSVPYRPK
0.54	0.58	Click dimer (N-ter) (not fully specified; propargylglycine (Pra) at position 1, joined by a click linkage to KN3 of the other chain; C-terminal amide; azido-lysine (KN3) at position 1, joined by a click linkage to Pra of the other chain; C-terminal amide) peptide 1: KAWLAYPDSVPYRPK peptide 2: XGAWLAYPDSVPYRPK
1400	1300	[Ccam]GAWLAYPDSVPYR [CcamGA-WLA-YR]
